# Results reported in the DeepSol protein solubility set.
# Experiment: soluble on expression in E. coli; label from the status in PepcDB or PDB records
row,Sequence,soluble on expression in E. coli
1,MRLNLRQLQIFCAITRFGSTTSAGNALALSQSATSAALNELEGALGTRLFDRVGKRLVLNDSGQSLLPRAMKMLENAQQIEDSFLLPDTTLNARLRIGSSSTIGNYELPSIVGALRESAPLLRVDVDIGNSALIARKVARFEIVMGLIEAPCHLPELIAEPWSVDEMVIVAGINHPLARQKQVSLGELQDAEWLLREPGSGTREEVEHLLLRHLHDLQDLREIGSSEAIKRTLAQGIGISCLSRRVVADLLASGQLKALASPLPPLNRRFFMIRHRDKFISPSLERFREACRQATDQAATLRHGLSHNASPTSSTTP,not soluble
2,MAHHHHHHMCYDCATSSSLVTTILNGMHVFNLDERFYGANLAAGLSASNVESYPYHTIGEEPLMSSCFFNAGQLFAVGSSCGSVTVVSRRSRALTSCYATPDSFPIRSLSEIPAQPNCLLTCTEQGAAIVDVERSQLRMSLANPAAGRAVAAVPLQLHTFVVANYDGKVLLYDTRYRSSPSSVLSLPDQITCLAVSRDTPEVCVGTVGGRVFTLRCAEGPQREQAFGMSNRRSPVRCVAMDNGRIAAGDLAGRLALIDTADVPDPTVYWSAETLLRLPRPSGRARHA,not soluble
3,MECPKEIVLLMHSYFDGDLQPEGEQQLKEHLRSCAACAAHFHELKKTVAFLQYAAHVAAPPSFAAKVMEAMPKERKTARLRRFMHRHPLLTAASLFLALTLGSLASSWGERGAFSVSADEHVIIRDHTVIVPKGETVKGDIVVRNGSIRIEGTVDGDVTVIHGKKYMASAGQVTGEVEEINQVFEWIWYNIKERFNRALQSIE,not soluble
4,GMENEENSAREQEADDFLHIASVKEDWGGDGRGRMNLSGRRTAIAKEYLPRQYQFFDTNTVMEKQGWRVRGMPDNIAPGSRRLLTWHDSGASTSRVVLPPKFEAPSGIFTADLEIFVIKGAIQLGEWQLNKHSYSFIPAGVRIGSWKVLGGEEAEILWMENGSVPLEYKYAQEDHPDARLSDFIPALDSKLLPWGKADTVQFVQANKKWLRKDINGGGVWLLAILPHFDNKYQMIQPYNEEGYCLTGYCDVGDYRIVKDHYWYCPSFSTLPRHITDDGGLFFVRVDRDLSKVATVLSYAPQDT,soluble
5,MGSDKIHHHHHHMLTTVKEKIEALNSEVSYRVKLWQYAPNLPKVESRDRLIVDTLKSEGVYITTLQELGLPSTAQLLKASHTLLPGMGQGSYAESAQNPPEIYTVTHIPDFYNWGSESRLLNILENYIGLPVAYHGVQIRKDFVNANQFSTMLWHRDSEDRRIVKIIIYLSDVEEKHGPFEYVPASFTSIDSLNFYRLYYKIHKSGINDEALNKIVPKSAWKSCTGPAGSVIIADTQRLLHHGTVRTEERSTLFYAYTANPAKRPGLCTQYWDDTFPKPNYS,not soluble
6,MALQLGRLSSGPCWLVARGGCGGPRAWSQCGGGGLRAWSQRSAAGRVCRPPGPAGTEQSRGLGHGSTSRGGPWVGTGLAAALAGLVGLATAAFGHVQRAEMLPKTSGTRATSLGRPEEEEDELAHRCSSFMAPPVTDLGELRRRPGDMKTKMELLILETQAQVCQALAQVDGGANFSVDRWERKEGGGGISCVLQDGCVFEKAGVSISVVHGNLSEEAAKQMRSRGKVLKTKDGKLPFCAMGVSSVIHPKNPHAPTIHFNYRYFEVEEADGNKQWWFGGGCDLTPTYLNQEDAVHFHRTLKEACDQHGPDLYPKFKKWCDDYFFIAHRGERRGIGGIFFDDLDSPSKEEVFRFVQSCARAVVPSYIPLVKKHCDDSFTPQEKLWQQLRRGRYVEFNLLYDRGTKFGLFTPGSRIESILMSLPLTARWEYMHSPSENSKEAEILEVLRHPRDWVR,not soluble
7,MGHHHHHHSHMGKGPNLLALQLSDSTLADIIARLQAGQKLSGSSPFSSAFNSLSLDKESGLLMFKGDKKPRVWVVPTQLRRDLIFSVHDIPLGAHQRPEETYKKLRLLGWWPGMQEHVKDYCRSCLFCIPRNLIGSELKVIESPASVLRGQGVCNRSGTR,not soluble
8,MGTYTVNVSSLNVRTGPSTSHTVLGSVNKGKTVQVVSEVQDWFKINFNGGTGYVSKDFVTKGGSAVLEHHHHHH,not soluble
9,MYHNSSQKRHWTFSSEEQLARLRADANRKFRCKAVANGKVLPNDPVFLEPHEEMTLCKYYEKRLLEFCSVFKPAMPRSVVGTACMYFKRFYLNNSVMEYHPRIIMLTCAFLACKVDEFNVSSPQFVGNLRESPLGQEKALEQILEYELLLIQQLNFHLIVHNPYRPFEGFLIDLKTRYPILENPEILRKTADDFLNRIALTDAYLLYTPSQIALTAILSSASRAGITMESYLSESLMLKENRTCLSQLLDIMKSMRNLVKKYEPPRSEEVAVLKQKLDRCHSAELALNVITKKRKGYEDDDYVSKKSKHEEEEWTDDDLVESL,soluble
10,MPTPKAFALLGPTAGGKTALALKIAETLPVEIISLDSALVYRDMDIGTAKPSASERAFVPHHLIDIIPPTESYSAARFVEDCTRLVGEISSRGRFALIVGGTMMYFRALTQGLNDLPEADACLRADLDEQKQMYGLDFLYRTLQKVDPETACRLKPNDSQRIGRALEVYYLTGKPMSTHLGSLTSHTLPFDLHTAALIPENRARLHENIALRFHLMLEQGFIGEVENLRRRYPGLTAYSPAIRCVGYRQAWKYLDGKTDFPAFVEKGIAATRQLAKRQLTWLRKTPLDCVADPFSDCTSCTRLIEAAKRFFGALEHHHHHH,soluble
11,MEETRPIDGLTDEDIREILTRYKKIALVGASPKPERDANIVMKYLLEHGYDVYPVNPKYEEVLGRKCYPSVLDIPDKIEVVDLFVKPKLTMEYVEQAIKKGAKVVWFQYNTYNREASKKADEAGLIIVANRCMMREHERLLGEK,soluble
12,MSLKNPLKLCGIEFTEYATPDSDFMEKAFYGFGFSKTKKMKGRDVEYFNQNDIHFLLNKEKAGFSKEFAKSHGPAICSMGWRVEDANFAFNEAVKRGAKSAENEANKLPYPAIFGIGDSLIYFIENFAKTGTNKGLIYDTDFEDIAEPVIVEDKGFLAVDHLTNNVYQGTMHKWADFYKDVFGFTEVRYFDIKGVKTALISYALASPCGKFCIPINEGKGSKDNQIDEYLNEYNGPGVQHLAFITDDLVGSLDKLDRSIVDTLNIVPEYYDEIFDRVPWVKEDKARIKEHQILVDSQSEDSYLLQIFTKNLFGPIFIEMIQRVDDQGFGEGNFSTLFKSIELNQMERGEGHHHHHH,soluble
13,MGSDKIHHHHHHMALVRLSQIHFNFQTAAQPLFEDLNLTIAAGECHLIHGYTGCGKSTLLKLLQGILERPWEGEREIAEGATLGVVMQDPNVQLLRQTLGAEVAFALENLGVASSEMLLQVRSALRRVGLYISLDTPIASLSLGQRYRLMIAAQLVLEPDLLLLDEPWAQLDDQGVAELSAVLHQLKQQGVALLIVEHHRGVFKDLVTHRWQLSQGQLQALAPAECEATSEQVSWRESPAWPQGSAVIDSHGFTLAFRERQKLFDADSLLLFPGEIAALVGDNGCGKSTLLKSLAGIQADIDPLGIKVFGKKPKLGRFGADLALLHQRPSRQLFENTVIEEMQFSLKRFGLPLERAIELLGQLGLTTLARHSPHTLSYGQQHLIALASLACLRPKLLLLDDPFAGLDEHFTDKIVALLTELSRQGTALVIASHRPIAALPVDRLWRVVDGRLESLSASPQAYSRVG,not soluble
14,MAQEFVNCKIQPGKVVVFIKPTCPYCRRAQEILSQLPIKQGLLEFVDITATNHTNEIQDYLQQLTGARTVPRVFIGKDCIGGCSDLVSLQQSGELLTRLKQIGALQ,soluble
15,MGSDKIHHHHHHMPPSFLWISSEVDLKVSSNGDCDHVVFLVDSHFNTCTESNYESFKVSCVAGTNTKDPTEFTKIELGHRPAGSTESPYDNSGFSVEFNGVFENSKQIECVLTRSSINREKRSSISTKKISKTKPKTQLHIFCYRICEIETKIQVISGRSIGSCRCRRNNKIIIPKNADLQILQRESESSHCHYREKNHKKLFHENSLPVMKFSVFNYNTQKW,not soluble
16,MIEFRQVSKTFNKKKQKIDALKDVSFTVNRNDIFGVIGYSGAGKSTLVRLVNHLEAASNGQVIVDGHDITNYSDKMMRDIKKDIGMIFQHFNLLNSATVFKNVAMPLILSKKSKTEIKQRVTEMLEFVGLSDKKDQFPDELSGGQKQRVAIARALVTNPKILLCDEATSALDPATTASILTLLKNVNQTFGITIMMITHEMRVIKDICNRVAVMEKGKVVETGTVKEVFSHPKTTIAQNFVSTVIQTEPSTSLIRRLNDEQVGDFKDYKIFVEETQVTQPIINDLIQICGREVKILFSSMSEIQGNTVCYMWLRFNMDQQFEDTAINQYFKEKNIQFEEVH,not soluble
17,MGSDKIHHHHHHMTKPNQDAIGMLPFKQSTVSLQVQEHYKTPMLLLGYQQRWCADLTPVKVCEKSRRIGLSWGEAADSALFAASQKGMDTWYIGYNKDMAQEFIRDCADWAKAYGLAAGEIEETEEIFKEGDEEKAILAYVIRFSSGWRITALSSRPSNLRGKQGRVIIDEAAFHDDLPELLKAAMALLMWGGQVHIISTHNGVDNPFNELVNEVRAGKKPYSLHTITFDDAIKDGLYQRICLRLGRTWSQQAQDEWVAEIRASYGDAAAEELDCIPRNSGGAWLTRALIESRMNADTPRLCLEKKDEFALQPEPIRNREIAQWCDENLYPVLTALPEKQRHFLGMDFARSGDLSVIAIGQEQSDLCLKNVLLLELSNIPFAQQEQIYFYIGDRLPRFSKAANDARGNGQSLSEKAFDRYGAIVEGVMLSESWYREHTAPFKAALEDDTLFDIVKNDDVLADLRAFQVVKGIPRLPDKRTVGQNKTKRHGDAAIAYLLLHYAYRTDQSFEINFRSTGTRTTTQLFNNNSFERVRTGRGFGSIRGGNDFRGY,not soluble
18,MSGAEQQQIVPANNGDENWKAGLNLPAKDRRFKTADVTDTKGVEFEDFCLGRDLLMGIFEKGWEKPSPIQEASIGVALTGQDILARAKNGTGKTGAYCIPVIEKIQPALKAIQAMVIVPTRELALQTSQICVELSKHIQLKVMVTTGGTDLRDDIMRLNGTVHLVIATPGRILDLMEKGVAKMEHCKTLVLDEADKLLSQDFQGILDRLINFLPKERQVMLYSATFPNTVTSFMQKHMHKPYEINLMEELTLLGVTQYYAFVQEKQKVHCLNTLFRKLQINQSIIFCNSTQRVELLAKKITEIGYSCYYIHSKMAQNHRNRVFHDFRQGNCRNLVCSDLLTRGIDIQAVNVVINFDFPRNAETYLHRIGRSGRFGHLGVAINLITYEDRHTLRRIEQELRTRIEPIPKTVDPKLYVADQQLVDAADETTA,not soluble
19,MHTDMKSVGTVSMQEAPLLEIAVVGHTNTGKTSLIRTLLRSTSFGRVDDAAGTTRHVERATIFAGSEAVLNLHDTPGIEDVYALQDKLHLIATRNKRSTQSELLEKFVAATPLNDPLEQEAKVIRQVLRSDVLLYVIDVREPVLEKYLIEIEILGKAMKPMIPIFNFTAAHRAELDLWRKKLAAFNIYASLELDTVAFAFEAEKRLYQKIQSLLEVHYTRLQRLIDHRARVWNQLCMSAARRIAGLIITTACYREHTGDERSSAGDTSSAAIRLQDFIRQAEQHCLVDLLKMFNFTDKDIELQKIPVQNGYWQLDLFAPGVLKAYGLDIGSAALKGAAAGAGIDLMTGGLSLGVASMLGALAGTGWSTFRRYGKEIQAKIRGTRWLCVDDSTLQLLYLRQRQLLDKLMNRGHAACHTDQVSQQPERGELPDGWQQIIDMLRQNPAWGRSPGLHTDDTRQYSSIEKRLIDALLKNPAL,not soluble
20,MRKIIVGSRKSKLALTQTNWFIDQLKALGLPYEFEVKEIVTKGDVILDVTLSKVGGKGLFVKEIEHALLTKEIDMAVHSMKDMPAVLPEGLMIGCTPKRVDPRDAFISKSGASYKELAEGAILGTSSLRRSAQLLAARPDLQVKWIRGNIDTRLRKLKEEDYDAIILATAGLQRMGWDNEVITEHLDETLCVPAVGQGALAIECREDDKDLLQLLAHINDAVTEKTVAAERVFLHKLEGGCQVPIAGYATITENDAIELTALVGSMDGSVLLKETVVGTDPEKVGLEAADRLIKQGAKELILAANKGQQ,not soluble
